Laboratory results published in article PMC11564096, “Structural and mechanistic insights into Streptococcus pneumoniae NADPH oxidase” (Nature Structural & Molecular Biology, 2024).

Substrate: NC(=O)C1=CN([C@@H]2O[C@H](COP(=O)(O)OP(=O)(O)OC[C@H]3O[C@@H](n4cnc5c(N)ncnc54)[C@H](O)[C@@H]3O)[C@@H](O)[C@H]2O)C=CC1
Experiment: purified protein
Assay type: biochemical, Streptococcus pneumoniae
Settings: 100 µM bovine cytochrome c, 0.1 µM SpNOX, 1 µM FAD, 50 mM Tris pH 7.0, 250 mM NaCl, room temperature, aerobic

B1: SpNOX (Streptococcus pneumoniae NOX) (Streptococcus pneumoniae R6) (protein)
chain: EFSMKSVKGLLFIIASFILTLLTWMNTSPQFMIPGLALTSLSLTFILATRLPLLESWFHSLEKVYTVHKFTAFLSIILLIFHNFSMGGLWGSRLAAQFGNLAIYIFASIILVAYLGKYIQYEAWRWIHRLVYLAYILGLFHIYMIMGNRLLTFNLLSFLVGSYALLGLLAGFYIIFLYQKISFPYLGKITHLKRLNHDTREIQIHLSRPFNYQSGQFAFLKIFQEGFESAPHPFSISGGHGQTLYFTVKTSGDHTKNIYDNLQAGSKVTLDRAYGHMIIEEGRENQVWIAGGIGITPFISYIREHPILDKQVHFYYSFRGDENAVYLDLLRNYAQKNPNFELHLIDSTKDGYLNFEQKEVPEHATVYMCGPISMMKALAKQIKKQNPKTELIYEGFKFK
notes: residues 2-400, N-terminal 6xHis-PreScission tag cleaved, E. coli C41(DE3), LMNG micelles, monomer, 46 kDa, two b-type hemes and FAD
  Km: 3.41 µM
  kcat: 3.33 s⁻¹
